Laboratory results published in patent publication US10221404B2, “Method for modifying characteristics of a lipase” (Novozymes A/S, priority 2014, dated 2019).

Tests used:
[1] = AMSA wash performance, specificity of inhibitory effect of propeptide; details: for With inhibitor RP (wash): propeptide SEQ ID No: 4 in 320:1 molar ratio, 3 hours at 4° C., normalized to wash performance without inhibitor; for No inhibitor RP (wash): without propeptide SEQ ID No: 4, normalized per lipase
Description: (§1) Washing experiments were performed using Automatic Mechanical Stress Assay (AMSA) in order to assess the wash performance in laundry. The AMSA plate has a number of slots for test solutions and a lid firmly squeezing the laundry sample, the textile to be washed against all the slot openings. During the washing time, the plate, test solutions, textile and lid were vigorously shaken to bring the test solution in contact with the textile and apply mechanical stress in a regular, periodic oscillating manner. For further description see WO02/42740 especially the paragraph “Special method embodiments” at page 23-24.
(§2) The laundry experiments were conducted in Model Detergent B, pH8. The experimental conditions are specified below:
(§3) Final adjustments to the specified pH were done with NaOH or citric acid. Water hardness was adjusted to 15° dH by addition of CaCl2 and MgCl2 (Ca^2+:Mg^2+=4:1) to the test system.
(§4) After washing the textiles were flushed in tap water and excess water was removed from the textiles using filter paper and immediately thereafter the textiles were dried at 85° C. for 5 min.
(§5) The wash performance was measured as the color change of the washed soiled textile. The soil was cream mixed with turmeric. Turmeric contains the colorant curcumin, which function as a pH indicator by having pH dependent color change. Lipase activity leads to release of free fatty acids from the cream acylglycerides and this leads to pH decrease and thereby color change of the curcumin pH indicator. Lipase wash performance can therefore be expressed as the extent of color change of light reflected-emitted from the washed soiled textile when illuminated with white light.
(§6) Color measurements were made with a professional flatbed scanner (EPSON EXPRESSION 10000XL, Atea NS, Lautrupvang 6, 2750 Ballerup, Denmark), which was used to capture an image of the washed soiled textile. To extract a value for the light intensity from the scanned images, 24-bit pixel values from the image were converted into values for red, green and blue (RGB).
(§7) Color change due to lipase activity was measured as the increase in the reflection-emitting of green light (G) relative to the sum of reflected-emitted blue (B) and red (R) light. The wash performance (RP(Wash)) of a lipase relative to a reference lipase (Lipolase™) was calculated as: RP(Wash)=(G/(B+R)(tested lipase)−G/(B+R)(no enzyme))/(G/(B+R)(lipase ref.)−G/(B+R)(no enzyme)).
The inhibitory specificity of the isolated propeptide was determined by mixing the isolated propeptide in a 320:1 molar ratio with 5 different lipases including the active RmL. All enzymes were diluted in 10 mM succinic acid buffer, pH6.5, to a concentration of 1.5 uM and were mixed (1:1) with purified propeptide dilutions. After 3 hours incubation at 4° C. the lipase performance of the incubated lipase-inhibitor samples were determined by Automatic Mechanical Stress Assay (AMSA) as described above. The relative wash performance “RP(wash)” is for each lipase normalized to the wash performance without inhibitor.

[2] = Hydrolytic activity, kinetic assay with p-nitrophenyl acyl esters; format: biochemical; details: substrates C3, C6, C10, C12, C16 at 1 mM; 50 mM Tris pH 7.7, 0.4% TritonX-100; 405 nm for 5 minutes
Description: The hydrolytic activity of RmL with and without propeptide on various fatty acids was investigated in a kinetic assay using p-nitrophenyl acyl esters as substrate. The 100 mM stock solutions in DMSO of the substrates: p-Nitrophenyl butyrate (C3), p-Nitrophenyl caproate (C6), p-Nitrophenyl caprate (C10), p-Nitrophenyl laurate (C12) and p-Nitrophenyl palmitate (C16) (all from Sigma-Aldrich Danmark NS, Kirkebjerg Allé 84, 2605 Brondby; Cat. no.: C3:N-9876, C6: N-0502, C10: N-0252, C12: N-2002, C16: N-2752) were diluted to a final concentration of 1 mM into assay buffer (50 mM Tris; pH 7.7; 0.4% TritonX-100).
RmL with and without propeptide and appropriate controls: Buffer (negative), Lipex™ (positive) RmL with and without propeptide in 50 mM Hepes pH8.0; 10 ppm TritonX-100; 20 mM CaCl2 were added to the substrate solution in the following final concentrations: 0.01 mg/mL; 5×10^−3 mg/mL; […]; and 1.25×10^−4 mg/mL in 96-well NUNC plates (Cat. No: 260836, Kamstrupvej 90, DK-4000, Roskilde). Release of p-nitrophenol by hydrolysis of p-nitrophenyl acyl was monitored at 405 nm for 5 minutes in 10 second intervals on a Spectra max 190 (Molecular Devices GmbH, Bismarckring 39, 88400 Biberach an der Riss, GERMANY).

[3] = AMSA wash performance after activation with detergent and/or protease; set-up: key to No (RP) / Det (RP) / Sav (RP) / Det + Sav (RP): wash performance relative to reference lipase (Lipolase), RP ratio
Description: as §1, §2, §3, §4, §5, §6, §7
Wild type RmL without or with propeptide respectively were submitted to no, detergent, protease or detergent+protease treatment prior to performance test in AMSA to test the activation level of the lipase after the treatment. […] […] Wash performance of all samples were determined by Automatic Mechanical Stress Assay (AMSA) as described above.

B1: SEQ ID NO: 5 (Lipex): commercial lipase product Lipex (Novozymes A/S), SEQ ID NO: 5 (protein, listed as Thermomyces lanuginosus)
chain: EVSQDLFNQFNLFAQYSAAAYCGKNNDAPAGTNITCTGNACPEVEKADATFLYSFEDSGVGDVTGFLALDNTNKLIVLSFRGSRSIENWIGNLNFDLKEINDICSGCRGHDGFTSSWRSVADTLRQKVEDAVREHPDYRVVFTGHSLGGALATVAGADLRGNGYDIDVFSYGAPRVGNRAFAEFLTVQTGGTLYRITHTNDIVPRLPPREFGYSHSSPEYWIKSGTLVPVRRRDIVKIEGIDATGGNNQPNIPDIPAHLWYFGLIGTCL
With inhibitor RP (wash) [1]: 0.89 | No inhibitor RP (wash) [1]: 1.00

B2: SEQ ID NO: 7 (RhimiLip1): lipase of SEQ ID NO: 7, tested for propeptide specificity (protein)
chain: MVSFISISQGVSLCLLVSSMMLGSSAVPVAGHKGSVKATNGTDFQLPPLISSRCTPPSHPETTGDPDAEAYYINKSVQWYQAHGGNYTALIKRDTETVGGMTLDLPENPPPIPATSTAPSSDSGEVVTATAAQIKELTNYAGVAATAYCRSVVPGTKWDCKQCLKYVPDGKLIKTFTSLLTDTNGFILRSDAQKTIYVTFRGTNSFRSAITDMVFTFTDYSPVKGAKVHAGFLSSYNQVVKDYFPVVQDQLTAYPDYKVIVTGHSLGGAQALLAGMDLYQREKRLSPKNLSIYTVGCPRVGNNAFAYYVDSTGIPFHRTVHKRDIVPHVPPQAFGYLHPGVESWIKEDPADVQICTSNIETKQCSNSIVPFTSIADHLTYFGINEGSCL
modifications: Rhizopus microsporus var. chinensis
With inhibitor RP (wash) [1]: 0.92 | No inhibitor RP (wash) [1]: 1.00

B3: SEQ ID NO: 6 (MuciLip2CN): lipase of SEQ ID NO: 6, tested for propeptide specificity (protein)
chain: MVSFVSISQGISLFIVVSSMLTGSAHAAPASSHSNSSKNATTSDASTFTLPPIISSRVTPPKVPSGSHNVEDANVAKNKKWFEAHGGKLNVTKRADETVGGYTMDLPSNAPPLPAVPSTSTVVIASTAQISEFKKYAGIASTAYCRSVVPLNQWSCTNCLKFVPDGKLIKTFTSLVTDTNGFVLRSDAQKTIYVVFRGTNSIRSAITDLVFELTNYTPVSGAKVHTGFYASYKAVVSDYFPAVQSQLTAYPGYKVIVTGHSLGGAQALLAGMDLYQREPRLSKSNLAIYTVGCPRVGNPAFAYYVDSTGITFSRSVNNRDIVPHVPPQAWGFLHPGVEAWARSSSNVQICTPNIETGLCSNSIVPFTSFTDHLTYYDLNEGLCL
modifications: Mucor circinelloides
With inhibitor RP (wash) [1]: 1.10 | No inhibitor RP (wash) [1]: 1.00

B4: RmL with propeptide: Rhizomucor miehei lipase with its native N-terminal propeptide non-covalently bound (inactive RmL) (protein, UniProt P19515 25-363, looked up)
pro-form: VPIKRQSNSTVDSLPPLIPSRTSAPSSSPSTTDPEAPAMSRNGPLPSDVETKYGMALNATSYPDSVVQAMSIDGGIRAATSQEINELTYYTTLSANSYCRTVIPGATWDCIHCDATEDLKIIKTWSTLIYDTNAMVARGDSEKTIYIVFRGSSSIRNWIADLTFVPVSYPPVSGTKVHKGFLDSYGEVQNELVATVLDQFKQYPSYKVAVTGHSLGGATALLCALDLYQREEGLSSSNLFLYTQGQPRVGDPAFANYVVSTGIPYRRTVNERDIVPHLPPAAFGFLHAGEEYWITDNSPETVQVCTSDLETSDCSNSIVPFTSVLDHLSYFGINTGLCT
modifications: pro-form
hydrolytic activity on p-nitrophenyl acyl esters [2]: no activity | Sav (RP) ([3]; 10 minutes in 1.35% (v/v) Savinase in 10 mM succinic acid pH6.5): 0.27 | Det + Sav (RP) ([3]; 10 minutes in 1.35% (v/v) Savinase in 77% (w/w) Detergent B): 0.88 | Det (RP) ([3]; 10 minutes in 77% (w/w) Model detergent B): 0.60 | No (RP) ([3]; 60 minutes in 10 mM succinic acid pH6.5): 0.18 | Sav (RP) ([3]; 60 minutes in 1.35% (v/v) Savinase in 10 mM succinic acid pH6.5): 0.39 | Det + Sav (RP) ([3]; 60 minutes in 1.35% (v/v) Savinase in 77% (w/w) Detergent B): 0.85 | Det (RP) ([3]; 60 minutes in 77% (w/w) Model detergent B): 0.69 | activation level of the lipase ([3]; Savinase treatment in detergent, after 10 minutes): full activation

B5: isolated propeptide: propeptide of RmL, amino acid sequence SEQ ID No: 4, purified from RmL (protein, listed as Rhizomucor miehei)
chain: VPIKRQSNSTVDSLPPLIPSRTSAPSSSPSTTDPEAPAMSRNGPLPSDVETKYGMALNATSYPDSVVQAM
inhibitory specificity of the isolated propeptide ([1]; 320:1 molar ratio with different lipases): exclusively effect with RmL
